Reference: PMC3348880, “MSMEG_2731, an Uncharacterized Nucleic Acid Binding Protein from Mycobacterium smegmatis, Physically Interacts with RPS1” (PLoS ONE, 2012)

T1: purified recombinant RPS1 (M. smegmatis, UniProt A0QYY6 1-479)
T1 construct: 30S ribosomal protein S1 (RPS1) of Mycobacterium smegmatis, gene amplified from M. smegmatis genomic DNA; Cloned into pET28a or pGEX-6P-1; also called purified RPS1; ribosomal protein S1; source: E. coli BL21 (DE3), purified
T1 sequence (looked up): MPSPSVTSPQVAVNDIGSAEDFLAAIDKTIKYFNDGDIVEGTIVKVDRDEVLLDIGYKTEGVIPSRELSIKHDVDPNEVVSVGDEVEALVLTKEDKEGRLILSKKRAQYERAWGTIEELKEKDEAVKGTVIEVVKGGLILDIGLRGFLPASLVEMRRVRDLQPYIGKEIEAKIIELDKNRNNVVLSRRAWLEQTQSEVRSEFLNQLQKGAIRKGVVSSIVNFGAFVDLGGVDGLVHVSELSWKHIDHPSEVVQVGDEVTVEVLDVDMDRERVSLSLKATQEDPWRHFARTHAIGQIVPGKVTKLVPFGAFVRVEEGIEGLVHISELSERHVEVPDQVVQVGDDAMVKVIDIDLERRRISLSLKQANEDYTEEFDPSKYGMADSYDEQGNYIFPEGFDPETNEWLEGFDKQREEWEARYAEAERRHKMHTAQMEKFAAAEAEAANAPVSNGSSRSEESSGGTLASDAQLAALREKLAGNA

T2: MSMEG_2731;30S ribosomal protein S1 (RPS1) (Mycobacterium smegmatis;Mycobacterium …, UniProt A0QVX6;A0QYY6 1-454;1-479, |)
T2 sequence 1: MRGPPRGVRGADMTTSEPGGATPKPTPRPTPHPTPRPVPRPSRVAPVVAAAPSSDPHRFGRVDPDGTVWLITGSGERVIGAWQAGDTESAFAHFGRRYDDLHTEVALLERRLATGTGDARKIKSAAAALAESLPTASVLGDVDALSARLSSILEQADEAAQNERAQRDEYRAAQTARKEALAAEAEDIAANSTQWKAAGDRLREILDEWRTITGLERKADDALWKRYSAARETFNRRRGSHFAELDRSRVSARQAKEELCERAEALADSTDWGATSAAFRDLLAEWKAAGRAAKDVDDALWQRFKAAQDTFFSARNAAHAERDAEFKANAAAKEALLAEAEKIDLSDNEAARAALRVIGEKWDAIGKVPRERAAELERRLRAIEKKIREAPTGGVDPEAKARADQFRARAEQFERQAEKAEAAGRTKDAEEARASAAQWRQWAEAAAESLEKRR
T2 sequence 2: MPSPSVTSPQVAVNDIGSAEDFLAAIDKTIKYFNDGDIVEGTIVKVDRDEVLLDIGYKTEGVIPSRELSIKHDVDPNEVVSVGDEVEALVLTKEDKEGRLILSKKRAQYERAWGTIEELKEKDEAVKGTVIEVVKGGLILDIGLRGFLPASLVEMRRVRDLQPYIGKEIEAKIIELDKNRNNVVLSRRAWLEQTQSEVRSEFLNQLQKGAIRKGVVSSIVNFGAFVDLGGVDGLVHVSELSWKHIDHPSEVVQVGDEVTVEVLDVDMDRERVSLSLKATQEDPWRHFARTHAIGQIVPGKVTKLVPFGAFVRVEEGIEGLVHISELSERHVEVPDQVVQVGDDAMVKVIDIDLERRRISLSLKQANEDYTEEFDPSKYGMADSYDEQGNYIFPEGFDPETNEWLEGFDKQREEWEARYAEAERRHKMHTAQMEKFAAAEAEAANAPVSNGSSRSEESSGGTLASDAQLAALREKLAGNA

T3: 30S ribosomal protein S1 (RPS1) (Mycobacterium smegmatis, UniProt A0QYY6 1-479)
T3 sequence: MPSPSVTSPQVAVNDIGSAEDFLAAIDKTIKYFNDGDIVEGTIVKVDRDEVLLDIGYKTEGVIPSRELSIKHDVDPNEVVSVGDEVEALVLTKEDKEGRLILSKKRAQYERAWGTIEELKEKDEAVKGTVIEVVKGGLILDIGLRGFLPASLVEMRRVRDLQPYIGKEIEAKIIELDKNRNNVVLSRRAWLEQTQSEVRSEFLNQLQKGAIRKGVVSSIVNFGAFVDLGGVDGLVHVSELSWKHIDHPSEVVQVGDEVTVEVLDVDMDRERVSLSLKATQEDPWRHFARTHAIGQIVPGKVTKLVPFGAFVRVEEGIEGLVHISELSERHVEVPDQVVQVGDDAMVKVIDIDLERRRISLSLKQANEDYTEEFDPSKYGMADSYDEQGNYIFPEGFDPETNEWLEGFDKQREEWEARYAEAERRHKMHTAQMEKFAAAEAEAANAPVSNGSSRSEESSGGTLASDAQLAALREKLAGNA


Columns and labels:
[1] = molecular target: T1, purified recombinant RPS1; assay: SPR; Biacore T100, 25°C; mixtures of 2.5 μM RPS1 with 1.25, 2.5 or 5 μM MSMEG_2731 passed over RNA immobilised on an SA chip (100 RU); 25 mM Tris-HCl pH 7.4, 150 mM NaCl, 0.005% Tween 20; settings: both partners purified
[2] = molecular target: T2, MSMEG_2731;30S ribosomal protein S1 …; assay: SPR; 2.5 uM RPS1 with 1.25, 2.5 or 5 uM MSMEG_2731; maximum response at 1:1; kinetics like RPS1 alone; SPR (Biacore T100, SA chip): 25 mM Tris-HCl pH 7.4, 150 mM NaCl, 0.005% Tween 20, 25 C, 30 ul/min; settings: protein: recombinant;recombinant; Methods name pET28a or pGEX-6P-1; copies: 1;1; label: 5' biotin (immobilized on SA chip); single strand
[3] = molecular target: T3, 30S ribosomal protein S1 (RPS1); assay: SPR; 2.5 uM RPS1; fast association, complete dissociation; SPR (Biacore T100, SA chip): 25 mM Tris-HCl pH 7.4, 150 mM NaCl, 0.005% Tween 20, 25 C, 30 ul/min; settings: protein: recombinant; Methods name pET28a or pGEX-6P-1; label: 5' biotin (immobilized on SA chip); single strand

| Binder | stoichiometry N [1] | binding result [2] | binding result [3] |
| --- | --- | --- | --- |
| MSMEG_2731, N-terminal His-tagged recombinant protein (natural protein, M. smegmatis, UniProt A0QVX6 1-454, looked up, MSMEG_2731, conserved hypothetical alanine and arginine rich protein of Mycobacterium smegmatis, 454 amino acids, three tandem repeats of DUF349; The protein tends to degrade at its N-terminus in vitro; also called full-length MSMEG_2731; recombinant MSMEG_2731; source: E. coli BL21 (DE3), pET28a, purified (Ni-NTA, gel filtration)) MRGPPRGVRGADMTTSEPGGATPKPTPRPTPHPTPRPVPRPSRVAPVVAAAPSSDPHRFGRVDPDGTVWLITGSGERVIGAWQAGDTESAFAHFGRRYDDLHTEVALLERRLATGTGDARKIKSAAAALAESLPTASVLGDVDALSARLSSILEQADEAAQNERAQRDEYRAAQTARKEALAAEAEDIAANSTQWKAAGDRLREILDEWRTITGLERKADDALWKRYSAARETFNRRRGSHFAELDRSRVSARQAKEELCERAEALADSTDWGATSAAFRDLLAEWKAAGRAAKDVDDALWQRFKAAQDTFFSARNAAHAERDAEFKANAAAKEALLAEAEKIDLSDNEAARAALRVIGEKWDAIGKVPRERAAELERRLRAIEKKIREAPTGGVDPEAKARADQFRARAEQFERQAEKAEAAGRTKDAEEARASAAQWRQWAEAAAESLEKRR | 1 |  |  |
| CACGUAUCUCGAGGAGCGGAUAUGA (ssRNA, 5' biotin) [RNA 25 nt] |  | binds | binds |
